B1: Proto-oncogene vav (Mus musculus), P27870 (parent)
chain: MELWRQCTHWLIQCRVLPPSHRVTWEGAQVCELAQALRDGVLLCQLLNNLLPQAINLREVNLRPQMSQFLCLKNIRTFLSTCCEKFGLKRSELFEAFDLFDVQDFGKVIYTLSALSWTPIAQNKGIMPFPTEDSALNDEDIYSGLSDQIDDTAEEDEDLYDCVENEEAEGDEIYEDLMRLESVPTPPKMTEYDKRCCCLREIQQTEEKYTDTLGSIQQHFMKPLQRFLKPQDMETIFVNIEELFSVHTHFLKELKDALAGPGATTLYQVFIKYKERFLVYGRYCSQVESASKHLDQVATAREDVQMKLEECSQRANNGRFTLRDLLMVPMQRVLKYHLLLQELVKHTQDATEKENLRLALDAMRDLAQCVNEVKRDNETLRQITNFQLSIENLDQSLANYGRPKIDGELKITSVERRSKTDRYAFLLDKALLICKRRGDSYDLKASVNLHSFQVRDDSSGERDNKKWSHMFLLIEDQGAQGYELFFKTRELKKKWMEQFEMAISNIYPENATANGHDFQMFSFEETTSCKACQMLLRGTFYQGYRCYRCRAPAHKECLGRVPPCGRHGQDFAGTMKKDKLHRRAQDKKRNELGLPKMEVFQEYYGIPPPPGAFGPFLRLNPGDIVELTKAEAEHNWWEGRNTATNEVGWFPCNRVHPYVHGPPQDLSVHLWYAGPMERAGAEGILTNRSDGTYLVRQRVKDTAEFAISIKYNVEVKHIKIMTSEGLYRITEKKAFRGLLELVEFYQQNSLKDCFKSLDTTLQFPYKEPERRAISKPPAGSTKYFGTAKARYDFCARDRSELSLKEGDIIKILNKKGQQGWWRGEIYGRIGWFPSNYVEEDYSEYC

Variants of: B1
Conditions: with RAC1, P63000-1

Variant	effect of a mutation on the interaction
Y174F	increasing interaction
K208A	increasing interaction

— IntAct's records for PubMed 18488041
